Experimental data from patent publication US8691225B2, “Antibodies against the ectodomain of ErbB3 and uses thereof” (Merrimack Pharmaceuticals, Inc., priority 2007, dated 2014).
Where two headings read alike, the source gives them in different places.

Tests used:
[1] = biological target: T1, AdrR cells expressing ErbB3 receptor (Homo sapiens, UniProt P21860); assay: HRG and BTC binding to AdrR cells by FACS; type: cell-based
T1 construct: host or cells: AdrR (NCI/AdrR) ovarian cancer cells

[2] = biological target: T2, ErbB3 receptor on the surface of MALME-3M cells (Homo sapiens, UniProt P21860); assay: cell surface fluorescence quenching assay (timecourse of ErbB3 downregulation); type: cell-based
T2 construct: ErbB3 expressed on MALME-3M melanoma cells; host or cells: MALME-3M melanoma cells
Method: In order to determine whether this downregulation of ErbB3 is due to internalization of the ErbB3 receptor on the surface of MALME-3M cells, a cell surface fluorescence quenching assay is preformed. MALME-3M cells are plated overnight on 6-well plates (0.2×10^6 per well) in RPMI+10% FBS. The following day, old medium is removed and cells are preincubated for 60 minutes on ice in RPMI+2% FBS containing 100 nM of Ab#6 conjugated to the fluorescent dye Alexa 488. Cells are then returned to a 37° C. incubator and incubated for 0.5 h, 2 h or 24 h. At the end of each timepoint, cells are trypsinized, washed with PBS+2% BSA+0.1% sodium azide (FACS stain buffer) and stored on ice until all samples are ready. For a Oh timepoint, cells are immediately trypsinized after the 60 minute preincubation and stored on ice. […] One set of tubes is incubated with 25 ug/ml anti-Alexa 488 antibody for 60 minutes on ice to quench any fluorescence source (i.e., Alexa 488-conjugated Ab#6) on the cell surface. […] For each sample 10,000 events are collected and analyzed with a FACSCALIBUR flow cytometer. This protocol gives an indication of what proportion of AB #6 (as measured by fluorescence) remains on the cell surface (indicated by the differential between the fluorescence of the quenched and unquenched cells at each timepoint) and how much is internalized (indicated by the level of fluorescence of quenched cells).

[3] = tested on: COLO-357 cells; assay: VEGF secretion assay (VEGF ELISA); type: cell-based, human; settings: untreated and HRG treated COLO-357
From the text: (§1) In contrast, HRG is able to induce more than a doubling of VEGF secretion in MCF-7 and T47D cells.

[4] = tested on: MCF-7 cells; assay: VEGF secretion assay (VEGF ELISA); type: cell-based, human; settings: untreated and HRG treated MCF-7
From the text: as §1

[5] = biological target: T3, ErbB3 receptors on MALME-3M cells (Homo sapiens, UniProt P21860); assay: downregulation of ErbB3 receptors on MALME-3M cells by FACS; type: cell-based; settings: 100 nM
T3 construct: ErbB3 expressed on MALME-3M melanoma cells; host or cells: MALME-3M melanoma cells
Method: MALME-3M cells are trypsinized from a 15 cm dish and washed once with RPMI+10% FBS. Cell pellets are resuspended at a density of 1×10^6 cells per ml. Two aliquots of 2×10^5 cells are added to separate wells in a 12-well tissue culture plate and each resuspended in a final volume of 800 ul RPMI+10% FBS.
Cells are washed twice with 1 ml BD stain buffer and incubated with 100 ul of a 1:500 dilution of Alexa 647-labeled goat anti-human Alexa 647 for 45 minutes on ice. Cells are then washed and resuspended in 300 ul BD stain buffer+0.5 ug/ml propidium iodide. Analysis of 10,000 cells is done in a FACSCALIBUR flow cytometer using the FL4 channel.

[6] = tested on: OVCAR8 spheroids; assay: spheroid growth assay; type: cell-based, human; settings: OVCAR8, 25 μg/ml on days 1 and 4
Method: Subconfluent cells are trypsinized, counted, and resuspended in filtered medium. The cell concentration is adjusted to 100,000 cells/ml, and one 20 ul drop (containing 2000 cells) is added to each ring on the underside of the lid of a 96-well plate. The lids with these hanging droplets are then placed back on the original 96-well plate, which contained 100 ul of PBS in each well to maintain moisture. Four days after initial plating, the hanging droplets containing the spheroids are replated into new 96-well plates. This replating involves transferring the lid containing the hanging droplets to a fresh 1% agarose/RPMI-coated 96-well plate that contains 150 ul of medium per well. The plate and lid are then centrifuged together at 500 rpm for 1 minute to transfer the spheroid-containing drops from the lids to the wells. Plates are then further incubated at 37° C. in a humidified CO2 incubator. Spheroids are photographed in an inverted phase contrast microscope. A micrometer scale is also photographed at the same magnification to determine spheroid size. The diameter of the spheroids is determined using METAMORPH image analysis software (MDS Analytical Technologies).
Multicellular tumor spheroids are generated as before.

[7] = tested on: heregulin-mediated phosphorylation of ErbB3 and AKT in MALME-3M cells; assay: heregulin-mediated signaling ELISA (pErbB3, pAKT); type: cell-based, human; settings: for IC50: IgG2 isotype, 5 nM HRG
Method: (§2) MALME-3M cells and OVCAR8 cells are separately seeded in 96 well tissue culture plates (35,000 cells per well) and grown in RPMI-1640 media supplemented with antibiotics, 2 mM L-glutamine and 10% FBS for 24 hours at 37° C. and 5% carbon dioxide. Cells are serum-starved in RPMI-1640 media with antibiotics and 2 mM L-glutamine for 24 hours at 37° C. and 5% carbon dioxide. […] Controls are HRG without added antibody and untreated cells (no HRG and no Ab). Cells are washed with cold PBS then harvested with mammalian protein extract (M-PER) lysis buffer (Pierce, 78505) containing 150 mM NaCl, 5 mM sodium pyrophosphate (Sigma, 221368-100G), 10 uM bpV(phen) (Calbiochem, 203695), 50 μM oxophenylarsine (Calbiochem, 521000), 1 mM sodium orthovanadate (Sigma, 56508-10G), and protease inhibitor cocktail (Sigma, P2714). Cell lysates are diluted two-fold with 4% bovine serum albumin in PBST (0.2% tween-20), then analyzed by ELISA for phosphorylation of either ErbB3, or AKT (a downstream effector of ErbB3).
(§3) In order to test for AKT phosphorylation, lysates are run on an ELISA plate with a capture antibody specific to AKT and biotinylated detection antibody specific to phospho-serine 473 of phospho-AKT (pAKT). Signal is generated with streptavidin conjugated to horseradish-peroxidase reacted with SUPERSIGNAL ELISA Pico chemiluminescent substrate (Pierce, 37070). In order to assay for ErbB3 phosphorylation, lysates are run on an ELISA plate with a capture antibody specific for ErbB3 and an anti-phosphotyrosine detection antibody conjugated to horseradish-peroxidase. This is then reacted with the same chemiluminescent substrate. Luminescent signal on the ELISAs is measured using a luminometer.

[8] = tested on: heregulin-mediated phosphorylation of ErbB3 and AKT in OVCAR8 cells; assay: heregulin-mediated signaling ELISA (pErbB3, pAKT); type: cell-based, human; settings: for IC50: IgG2 isotype, 5 nM HRG
Method: as §2, §3

B1: Ab #6: human anti-ErbB3 antibody from Fab-phage library, CDRs SEQ ID NOs:7-12; used as IgG1 and IgG2 isotypes; in phase I trials as MM-121 (antibody, V domains shown)
VH: EVQLLESGGGLVQPGGSLRLSCAASGFTFSHYVMAWVRQAPGKGLEWVSSISSSGGWTLYADSVKGRFTISRDNSKNTLYLQMNSLRAEDTAVYYCTRGLKMATIFDYWGQGTLVTVSS
VL: QSALTQPASVSGSPGQSITISCTGTSSDVGSYNVVSWYQQHPGKAPKLIIYEVSQRPSGVSNRFSGSKSGNTASLTISGLQTEDEADYYCCSYAGSSIFVIFGGGTKVTVL
Q: For B1, which “competition with BTC for binding to AdrR cells” value [1] is on record?
A: competes with HRG but not BTC

Q: And the “competition with HRG for binding to AdrR cells” value [1]?
A: competes with HRG

Q: What about the “downregulation of cell surface ErbB3 receptors” value ([2]; after about 30 minutes) of the same molecule?
A: about 50%

Q: What about the “downregulation of cell surface ErbB3 receptors” value ([2]; at about 24 hours) of the same molecule?
A: about 93%

Q: What about the “inhibition of VEGF secretion” value [3] of the same molecule?
A: potent inhibitory effect at high levels in all three cell lines with the highest being in COLO-357

Q: And the “inhibition of VEGF secretion” value [4]?
A: potent inhibitory effect at high levels in all three cell lines

Q: And the “downregulation of ErbB3 on MALME-3M cells” value ([5]; IgG1 isotype)?
A: about 62%

Q: What about the “downregulation of ErbB3 on MALME-3M cells” value ([5]; IgG2 isotype) of the same molecule?
A: about 66%

Q: What about the “decrease in spheroid area” value [6] of the same molecule?
A: 30-40%

Q: What about the “extent of inhibition of phosphorylation of AKT and ErbB3” value ([7]; FIGS. 16A-D, MALME-3M cells and OVCAR8 cells) of the same molecule?
A: essentially complete inhibiton

Q: What about the “inhibition of heregulin-mediated signaling” value ([7]; MALME-3M cells) of the same molecule?
A: potent inhibitor of heregulin-mediated signaling

Q: And the IC50 ([7]; MALME-3M cells, read-out: IC50, heregulin-mediated phosphorylation of ErbB3)?
A: 15 nM

Q: And the IC50 ([7]; MALME-3M cells, read-out: IC50, phosphorylation of AKT)?
A: 11 nM

Q: What about the “inhibition of heregulin-mediated signaling” value [8] of the same molecule?
A: potent inhibitor of heregulin-mediated signaling

Q: And the IC50 ([8]; read-out: IC50, heregulin-mediated phosphorylation of ErbB3)?
A: 24 nM

Q: What about the IC50 ([8]; read-out: IC50, phosphorylation of AKT) of the same molecule?
A: 67 nM
